Reference: patent publication US20070110818A1, “Milk fractions and milk preparations for treating and/or preventing cox-2 mediated diseases” (priority 2003, published 2007)

Target: T1, COX-2 (Homo sapiens, UniProt P35354)
T1 construct: treated with 100 nM (nmol/l) phorbol 12-myristate 13-acetate for 6 h at 37° C. to induce COX-2 isoenzyme; endogenous in cells; host or cells: HUV-EC-C (ATCC CRL1730), PMA-induced
T1 sequence (P35354 18-604): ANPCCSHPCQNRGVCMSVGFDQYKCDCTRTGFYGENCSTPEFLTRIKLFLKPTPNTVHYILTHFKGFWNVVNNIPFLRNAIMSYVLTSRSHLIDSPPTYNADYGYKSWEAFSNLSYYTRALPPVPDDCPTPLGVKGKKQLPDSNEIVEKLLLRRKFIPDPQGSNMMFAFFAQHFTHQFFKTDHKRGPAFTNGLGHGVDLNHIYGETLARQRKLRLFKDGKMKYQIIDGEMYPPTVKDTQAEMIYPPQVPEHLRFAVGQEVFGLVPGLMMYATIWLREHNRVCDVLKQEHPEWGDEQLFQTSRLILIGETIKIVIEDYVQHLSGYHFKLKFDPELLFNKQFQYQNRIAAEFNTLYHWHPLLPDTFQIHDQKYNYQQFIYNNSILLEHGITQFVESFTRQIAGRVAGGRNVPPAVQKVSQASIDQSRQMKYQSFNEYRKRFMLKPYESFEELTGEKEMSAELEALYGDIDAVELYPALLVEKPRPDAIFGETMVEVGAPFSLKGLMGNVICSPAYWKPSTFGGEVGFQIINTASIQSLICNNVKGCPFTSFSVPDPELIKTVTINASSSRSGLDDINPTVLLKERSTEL
Assay: COX-2 screening in PMA-induced HUV-EC-C cells (Prostaglandine-E2 production by RIA)
Type: cell-based
Method: HUV-EC-C cells (a permanent endothelial cell line derived from the vein of a normal human umbilical cord; ATCC CRL1730; M. Miralpeix, M. Camacho et al., Brit. J. Pharmacol. 121 (1997), 171-180), were seeded onto 96-well plates (RPMI 1640+10% FCS) and treated with 100 nM (nmol/l) phorbol 12-myristate 13-acetate for 6 h at 37° C. to induce COX-2 isoenzyme. 50 μM (μmol/l) arachidonic acid were then added and the cells were incubated in the presence of test compounds or mixtures for 30 min at 37° C. Prostaglandine-E2 production was measured by radioimmuno assay (RIA) and the radioactivity determined with a scintillation counter (Topcount, Packard) using a liquid scintillation cocktail (Packard).
The results obtained are expressed as a percent of control values and as a percent inhibition of control values obtained in the presence of the test compounds. The control values correspond to the COX-2 activity of HUV-EC-C cells after stimulation with Phorbol Myristate Acetate (PMA) during 6 hours at 37° C. (can be done also with Tumor Necrosis Factor type alpha: TNFα) in absence of test compound.
The concentration causing a half-maximal inhibition of control values (IC50 value) and Hill coefficients (nH) were determined for the reference compounds (cycloheximide) by nonlinear regression analysis of their inhibition curves. These parameters were obtained by Hill equation curve fitting. […]

B1: Lactoferrin (protein, UniProt P02788 20-710, looked up)
Lactotransferrin: GRRRSVQWCAVSQPEATKCFQWQRNMRKVRGPPVSCIKRDSPIQCIQAIAENRADAVTLDGGFIYEAGLAPYKLRPVAAEVYGTERQPRTHYYAVAVVKKGGSFQLNELQGLKSCHTGLRRTAGWNVPIGTLRPFLNWTGPPEPIEAAVARFFSASCVPGADKGQFPNLCRLCAGTGENKCAFSSQEPYFSYSGAFKCLRDGAGDVAFIRESTVFEDLSDEAERDEYELLCPDNTRKPVDKFKDCHLARVPSHAVVARSVNGKEDAIWNLLRQAQEKFGKDKSPKFQLFGSPSGQKDLLFKDSAIGFSRVPPRIDSGLYLGSGYFTAIQNLRKSEEEVAARRARVVWCAVGEQELRKCNQWSGLSEGSVTCSSASTTEDCIALVLKGEADAMSLDGGYVYTAGKCGLVPVLAENYKSQQSSDPDPNCVDRPVEGYLAVAVVRRSDTSLTWNSVKGKKSCHTAVDRTAGWNIPMGLLFNQTGSCKFDEYFSQSCAPGSDPRSNLCALCIGDEQGENKCVPNSNERYYGYTGAFRCLAENAGDVAFVKDVTVLQNTDGNNNEAWAKDLKLADFALLCLDGKRKPVTEARSCHLAMAPNHAVVSRMDKVERLKQVLLHQQAKFGRNGSDCPDKFCLFQSETKNLLFNDNTECLARLHGKTTYEKYLGPQYVAGITNLKKCSTSPLLEACEFLRK
- cyclooxygenase-2 inhibiting activity (in words): not to have any cyclooxygense-2 inhibiting activity
